Assay [1] deals with SgcC FADH2-dependent monooxygenase (Streptomyces globisporus). The assay can be described thus: SEC. For orientation: In gel filtration, larger molecules generally elute earlier.
Assay [2] has as its target SgcE6 flavin reductase (Streptomyces globisporus). The assay can be described thus: SEC.

From PMC5024704 come the findings set out here.

As a reminder, the stoichiometry N is a count of units in the complex or per binding partner.

With “SgcC FADH2-dependent monooxygenase (enzyme)”, the stoichiometry N in assay [1] turned out to be 4.

In assay [2], SgcE6 flavin reductase (enzyme) came in with a stoichiometry N of 2.
